According to publication PMC4260879:

How the values were obtained:
[1] = target: UG37 gp140 (HIV-1); assay: ELISA; gp140 coated at 2 ug/ml (2 hr, 37 C); CD4-IgG2 titrated, 2 hr at RT; detected with anti-human-IgG-HRP; one-site binding fit, EC50 at 50% of maximum binding
[2] = target: UG37 gp140 (HIV-1); assay: SEC; Superdex200 26/60; trimer peak after Talon, re-run after GNA-lectin capture

| Substance | EC50 [1] [nM] | stoichiometry N [2] |
| --- | --- | --- |
| CD4-IgG2 (from UniProt P01730 26-458) (Fc fusion) | 0.18 | – |
| UG37 gp140 (domain or fragment) | – | 3 |
